Data published in patent US6017763.

How the values were obtained:
[1] = molecular target: pig neutrophil Gβγ-activated PI3K A (p117/p101 heterodimer) (porcine)
[2] = molecular target: pig neutrophil Gβγ-activated PI3K B (p120/p101 heterodimer) (porcine)
[3] = molecular target: porcine 6×HIS-tagged p120, Sf9-derived (pAcHLT p120), uncleaved (porcine)
[4] = molecular target: porcine twice-cut p120 (thrombin cleaved, lacking approximately 40 amino-terminal residues) (porcine)
[5] = molecular target: Sf9-derived p101/p120 heterodimer ((EE)-p101 with 6×HIS-p120), formed in vivo by co-infection or reconstituted in vitro (porcine)

- PI3K (lipid kinase) activity [1]: > 100 ×
- PI3K (lipid kinase) activity [2]: > 100 ×
- PI3K activity of free p120 [3]: 1.7 fold
- PI3K activity of thrombin cleaved p120 [4]: 2.5 fold
- PI3K activity [5]: > 100 ×
Substance: Gβγ subunits (purified G protein βγ subunits)
